Changes are numbered by the printed parent chain. Names and notes keep the numbering of the source.
T1: EsCas13d, nuclease-dead (Eubacterium siraeum, UniProt B0MS50, R295A;H300A;R849A;H854A)
T1 sequence: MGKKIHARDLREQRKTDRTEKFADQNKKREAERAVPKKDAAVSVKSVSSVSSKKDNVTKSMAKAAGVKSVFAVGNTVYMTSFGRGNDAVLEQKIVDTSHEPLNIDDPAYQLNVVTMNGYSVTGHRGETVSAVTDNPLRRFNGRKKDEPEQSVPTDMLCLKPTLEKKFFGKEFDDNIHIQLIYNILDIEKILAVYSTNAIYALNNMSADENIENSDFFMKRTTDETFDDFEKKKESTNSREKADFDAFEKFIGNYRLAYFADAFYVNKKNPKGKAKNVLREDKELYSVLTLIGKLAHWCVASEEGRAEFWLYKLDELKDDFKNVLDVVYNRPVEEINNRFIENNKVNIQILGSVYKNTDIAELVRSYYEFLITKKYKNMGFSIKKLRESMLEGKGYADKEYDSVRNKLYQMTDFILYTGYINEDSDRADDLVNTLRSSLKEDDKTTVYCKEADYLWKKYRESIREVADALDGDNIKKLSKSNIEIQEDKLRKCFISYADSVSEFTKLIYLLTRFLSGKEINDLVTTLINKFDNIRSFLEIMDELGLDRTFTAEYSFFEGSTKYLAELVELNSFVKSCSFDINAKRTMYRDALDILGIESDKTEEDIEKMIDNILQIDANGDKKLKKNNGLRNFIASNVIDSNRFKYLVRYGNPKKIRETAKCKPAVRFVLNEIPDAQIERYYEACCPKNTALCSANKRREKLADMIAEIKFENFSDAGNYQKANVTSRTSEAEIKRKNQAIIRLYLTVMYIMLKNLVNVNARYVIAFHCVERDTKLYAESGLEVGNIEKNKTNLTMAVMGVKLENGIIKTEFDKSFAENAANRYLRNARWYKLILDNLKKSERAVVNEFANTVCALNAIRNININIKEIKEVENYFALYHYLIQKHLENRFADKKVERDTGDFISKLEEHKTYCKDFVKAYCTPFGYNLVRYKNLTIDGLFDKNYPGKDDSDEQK

B1: target 2 MT 5'PFS UGG 3'PFS CUA (mixed)
RNA 1: CACCCGUGCAAAAUUGCAGGGGUCUAAAACCUUCUCCAAAUUGUUUCAUCCU
RNA 2: GGGAAUGGAUCCACAUCUACGAAUUCUGGAGGAUGAAACAAUUUGGAGAAGCUAAGAUCGGAAGAGCACACGU
B2: target 2 MT 5'PFS GGG 3'PFS UGU (mixed)
RNA 1: B1 RNA 1
RNA 2: B1 RNA 2 with U27G, C52U, U53G, A54U
B3: target 2 MT 5'PFS UGC 3'PFS UAU (mixed)
RNA 1: B1 RNA 1
RNA 2: B1 RNA 2 with G29C, C52U, U53A, A54U
B4: target 2 MT 5'PFS UGC 3'PFS UAA (mixed)
RNA 1: B1 RNA 1
RNA 2: B1 RNA 2 with G29C, C52U, U53A
B5: target 2 MT 5'PFS AGG 3'PFS CAA (mixed)
RNA 1: B1 RNA 1
RNA 2: B1 RNA 2 with U27A, U53A
B6: target 2 MT 5'PFS UGA 3'PFS CGA (mixed)
RNA 1: B1 RNA 1
RNA 2: B1 RNA 2 with G29A, U53G
B7: target 2 MT 5'PFS UGC 3'PFS UAC (mixed)
RNA 1: B1 RNA 1
RNA 2: B1 RNA 2 with G29C, C52U, U53A, A54C
B8: target 2 MT 5'PFS GUA 3'PFS CAC (mixed)
RNA 1: B1 RNA 1
RNA 2: B1 RNA 2 with U27G, G28U, G29A, U53A, A54C
B9: target 2 MT 5'PFS GAU 3'PFS CCG (mixed)
RNA 1: B1 RNA 1
RNA 2: B1 RNA 2 with U27G, G28A, G29U, U53C, A54G
B10: target 2 MT 5'PFS UAU 3'PFS UAC (mixed)
RNA 1: B1 RNA 1
RNA 2: B1 RNA 2 with G28A, G29U, C52U, U53A, A54C
B11: target 2 MT 5'PFS UGA 3'PFS CGC (mixed)
RNA 1: B1 RNA 1
RNA 2: B1 RNA 2 with G29A, U53G, A54C
B12: target 2 MT 5'PFS UGC 3'PFS CAU (mixed)
RNA 1: B1 RNA 1
RNA 2: B1 RNA 2 with G29C, U53A, A54U
B13: target 2 MT 5'PFS UAU 3'PFS UAA (mixed)
RNA 1: B1 RNA 1
RNA 2: B1 RNA 2 with G28A, G29U, C52U, U53A
B14: target 2 MT 5'PFS AAA 3'PFS CUG (mixed)
RNA 1: B1 RNA 1
RNA 2: B1 RNA 2 with U27A, G28A, G29A, A54G
B15: target 2 MT 5'PFS GAG 3'PFS AGG (mixed)
RNA 1: B1 RNA 1
RNA 2: B1 RNA 2 with U27G, G28A, C52A, U53G, A54G
B16: target 1 insG 3' of 18,insA 3' of 5 (mixed)
RNA 1: CACCCGUGCAAAAAUGCAGGGGUCUAAAACUGAGCGGAUAACCUCUCUAUGG
RNA 2: GGGAAUGGAUCCACAUCUACGAAUUCGUACCAUAGGAGAGGUUAUCCGACUCACCGAGAUCGGAAGAGCACACGU
B17: target 1 C6U,C21A (mixed)
RNA 1: B16 RNA 1
RNA 2: GGGAAUGGAUCCACAUCUACGAAUUCGUACAAUAGAGAGGUUAUCUGCUCACCGAGAUCGGAAGAGCACACGU

What follows are binders tested against T1, EsCas13d, nuclease-dead (assay: crRNA (strand 1, pre-loaded); Mg2+; 40 mM Tris-HCl pH 7.5, 150 mM NaCl, 6 mM MgCl2, 1 mM DTT, 0.1% Tween-20, 0.2 mg/ml BSA; 25 C; 10 min per concentration, then washed). Conditions: tags: His6-TwinStrep-SUMO cleaved; N-terminal SNAP kept (SNAP-Surface 488); label: 3' end held by stalled T7 RNA polymerase.

Row | Binder | Kd [nM]
1 | B1 | 7 ± 1.3
2 | B2 | 12.2 ± 0.8
3 | B3 | 14.3 ± 2.6
4 | B4 | 17 ± 6
5 | B5 | 4.1 ± 0.7
6 | B6 | 7.2 ± 0.8
7 | B7 | 21 ± 4
8 | B8 | 9.6 ± 1.2
9 | B9 | 14.2 ± 1.4
10 | B10 | 26 ± 6
11 | B11 | 8.5 ± 1.1
12 | B12 | 25 ± 8
13 | B13 | 18.1 ± 3
14 | B14 | 5.5 ± 1.1
15 | B15 | 5.5 ± 0.4
16 | B16 | 36 ± 4
17 | B17 | 26.2 ± 1.6
